Where two headings read alike, the source gives them in different places.

One may read the EC50 as the concentration at which the effect is half-maximal. As a reminder, the IC50 is the midpoint of a concentration-inhibition curve. As usually defined, the Kd is the constant that tells how readily two partners part at equilibrium. The term koff denotes the rate constant with which the complex falls apart. Usually kon stands for the rate constant with which the complex forms.

Assay [1] addresses human IL4Rα expressed on HEK293T-IL4Rα-STAT6-STAT6LUC-LB2 cells (human, UniProt P24394 26-825). Kind of assay: cell-based or functional assay.
The target of assay [2] is T1, recombinant human IL4Rα-his protein (in house made) (human, UniProt P24394 26-232, limits assumed).
T1 construct: also called Human IL4Ra-his
Nature of the assay: capture ELISA, biotin-IL4Rα-his. Background: An ELISA detects its analyte on a solid surface through an enzyme-linked reagent.

Assay [3] has as its target T1, recombinant human IL4Rα-his protein (in …). Nature of the assay: competitive ELISA, blocks biotin-IL4Rα-his binding to coated Benchmark (competitor). The procedure:
The ability of the anti-IL4Rα antibodies of the disclosure to block benchmark-human IL4Rα binding was measured in a competitive ELISA assay. Briefly, the benchmark was coated on 96-well micro plates at 2 μg/mL in PBS, 100 μl per well, and incubated overnight at 4° C. The next day, plates were washed with wash buffer (PBS+0.05% w/v Tween-20, PBST), and blocked with 5% w/v non-fatty milk in PBST for 2 hours at 37° C. tiring plate blocking, the anti-IL4Rα antibodies of the disclosure or controls were diluted with biotin labeled human IL4Rα-his proteins (prepared in-house with SEQ ID NO: 57, 0.55 nM in 2.5% w/v non-fatty milk in PBST), starting at 100 nM with a 4-fold serial dilution, and incubated at 25° C. for 40 minutes. After plate washing, the antibody/IL4Rα-his mixtures were added to benchmark coated plates, 100 μl per well. After incubation at 37° C. for 40 minutes, plates were washed using wash buffer. Then the plates were added and incubated with 100 μl/well streptavidin conjugated HRP for 40 minutes at 37° C. to detect biotin-labeled human IL4Rα-his bound to plates. Plates were washed again using wash buffer. Finally, TMB was added and the reaction was stopped using 1M H₂SO₄, and the absorbance was read at 450 nm. Data was analyzed using Graphpad Prism software and IC₅₀ values were reported.

The target in assay [4] is T2, cynomolgus monkey IL4Rα-his protein (cynomolgus monkey, UniProt A0A2K5V580 33-239).
T2 construct: Bought protein; also called Cynomolgus IL4Rα; Cyno-IL4Rα-his; not shown: his tag
Nature of the assay: indirect ELISA, coated cyno IL4Rα-his.

Assay [5] addresses T1, recombinant human IL4Rα-his protein (in …). Kind of assay: SPR (Biacore), antibody captured, IL4Rα-his flowed. In general terms: Surface plasmon resonance follows binding to a sensor surface in real time, without labels.
Assay [6] has the same target. Kind of assay: competitive ELISA: coated human IL4Rα-his, blocked ligand biotin human IL4.
In assay [7] the target is T2, cynomolgus monkey IL4Rα-his protein. Kind of assay: indirect ELISA on coated cynomolgus IL4Rα-his.
The target in assay [8] is T1, recombinant human IL4Rα-his protein (in …). Kind of assay: SPR (Biacore), antibody captured, IL4Rα-his flowed. This is another data set of the same source.
For assay [9] the target is unchanged. Nature of the assay: competitive ELISA, blocks biotin-IL4 binding to coated IL4Rα-his. How it is done:
Serially diluted anti-IL4Rα antibodies or the controls (starting at 80 nM with a 4-fold serial dilution) in 2.5% w/v non-fatty milk in PBST, 100 μl per well, were added to the IL4Rα bound plates, and incubated with the human IL4Rα-his proteins at 37° C. for 40 minutes. Plates were washed 4 times using wash buffer, and then added and incubated for 40 minutes at 37° C. with 100 μl/well of 0.56 nM biotin-labeled human IL4 protein (Sino biological inc., Cat #11846-HNAE). Plates were washed again using wash buffer. Thereafter, the plates were added with 100 μl/well of streptavidin conjugated HRP (1:10000 dilution in PBST buffer, Jackson Immunoresearch, Cat #016-030-084) and incubated for 40 minutes at 37° C. Plates were washed again using wash buffer. Finally, TMB was added and the reaction was stopped using 1M H₂SO₄, and the absorbance was read at 450 nm. Data was analyzed using Graphpad Prism software and IC₅₀ values were reported.

Assay [10] shares this target. Nature of the assay: capture ELISA: antibody captured on anti-IgG Fc plate, biotin human IL4Rα-his detected.
Assay [11] addresses T3, human IL4Rα expressed on 293F-IL4Rα cells (human, UniProt P24394 26-825).
T3 construct: whole, on cells; also called cell surface human IL4Rα
Kind of assay: flow cytometry, blocks biotin-IL4 binding to 293F-IL4Rα cells. How it is done: Then, 1×10⁵ cells per well in 96 well-plates were incubated in 100 μL of the anti-IL4Rα antibodies or controls of various concentrations (starting at 80 nM with a 4-fold serial dilution) in FACS buffer for 40 minutes on ice. The plates were washed twice with FACS buffer, and added and incubated for 40 minutes at 4° C. in dark with 100 μl/well 1.67 nM biotin-labeled human IL4 protein (Sino biological inc., Cat #11846-HNAE). The plates were washed twice with FACS buffer, and then added and incubated for 40 minutes at 4° C. in dark with 100 μl/well R-Phycoerythrin Streptavidin (1:500 dilution in FACS buffer, Jackson Immunoresearch, Cat #016-110-084). Cells were washed twice and resuspended in FACS buffer. Fluorescence was measured using a Becton Dickinson FACS Canto II-HTS equipment. Data was analyzed using Graphpad Prism software and IC₅₀ values were reported.

Assay [12] deals with T4, marmoset monkey IL4Rα-his protein (marmoset monkey).
T4 construct: Custom made by Sino biological; no cleavage site stated; also called cal-IL4Rα-his; Cal-IL4Rα
T4 chain: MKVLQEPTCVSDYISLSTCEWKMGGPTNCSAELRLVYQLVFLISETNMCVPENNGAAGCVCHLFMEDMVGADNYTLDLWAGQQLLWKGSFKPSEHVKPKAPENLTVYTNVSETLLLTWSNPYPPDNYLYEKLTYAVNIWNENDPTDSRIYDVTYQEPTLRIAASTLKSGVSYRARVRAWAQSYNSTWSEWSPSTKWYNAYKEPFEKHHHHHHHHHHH
Kind of assay: indirect ELISA, coated cal-IL4Rα-his.

The target of assay [13] is T3, human IL4Rα expressed on 293F-IL4Rα …. Kind of assay: flow cytometry, 293F-IL4Rα cells. How it is done:
Then, 2×10⁵ cells per well in 96 well-plates were incubated in 100 μL of the anti-IL4Rα antibodies or controls of various concentrations (starting at 80 nM with a 4-fold serial dilution) in FACS buffer for 40 minutes on ice. […] Following an incubation of 40 minutes at 4° C. in dark, cells were washed three times and resuspended in FACS buffer. Fluorescence was measured using a Becton Dickinson FACS Canto II-HTS equipment. Data was analyzed using Graphpad Prism software and EC₅₀ values were reported.

Assay [14] has the same target. Nature of the assay: flow cytometry on 293F-IL4Rα cells, blocked ligand biotin human IL4. (In flow cytometry, cells or beads pass a laser one at a time.)
Assay [15] has as its target T1, recombinant human IL4Rα-his protein (in …). Kind of assay: competitive ELISA: antibody mixed with biotin human IL4Rα-his, competitor plate-coated Benchmark.
The target of assay [16] is T4, marmoset monkey IL4Rα-his protein. Kind of assay: indirect ELISA on coated cal-IL4Rα-his.
In assay [17] the target is T3, human IL4Rα expressed on 293F-IL4Rα …. Nature of the assay: flow cytometry on 293F-IL4Rα cells.

B1: huB8G11F2B7G5E8-V2 (antibody, human IgG4 S228P, kappa, V domains shown)
VH: EVQLVQSGAEVKKPGATVKISCKVSGFNIKDTYMHWVKQAPGKGLEWVGRIDPTNGYTIYASKFQGKATITADTSSNTAYMELSSLRSEDTAVYHCVSRRPWFAYWGQGTLVTVSS
VL: DIVMTQTPLSLSVTPGQPASISCRSSQSIVHSNGNTYLEWYLQKPGQSPQLLIYKVTNRFSGVPDRFSGSGSGTDFTLKISRVEAEDVGVYYCFQGSHVPYTFGQGTKLEIKR
notes: Humanized, human IgG4/kappa; also called huBSG11F2B7G5E8-V2
As to B1, the “Inhibition on IL4 induced STAT6 phosphorylation (IC50, nM)” value in assay [1] is 0.4 nM. Besides, in [1], the “Inhibition on IL13 induced STAT6 phosphorylation (IC50, nM)” value came out at 0.63 nM. In addition, the EC50 in [2] was 0.27 nM; in assay [4], 914 nM; in assay [7], 914 nM; in assay [10] it was 0.274 nM; in [12] it was 0.8 nM; in assay [13] it was 0.43 nM. The figures for the EC50 in assay [16] and in assay [17] were 0.799 nM and 0.426 nM, respectively. The IC50 came out at 1.2 nM in assay [3]; 1 nM in assay [6]; 1 nM in assay [9]; 0.54 nM in assay [11]; 0.538 nM in assay [14]; 1.2 nM in [15]. Moreover, the Kd in [5] was found to be 3.1 nM; in [8], 4.1 nM. Further, in assay [5], the dissociation rate constant (koff) is 0.00162 s⁻¹. Besides, the on-rate constant (kon) in assay [5] came to 521000 M⁻¹ s⁻¹.

B2: huB8G11F2B7G5E8-V4 (antibody, human IgG4 S228P, kappa, V domains shown)
VH: EVQLVQSGAEVKKPGATVKISCKASGFNIKDTYMHWVKQAPGKGLEWMGRIDPTNGYTIYASKFQGKATITADTSSNTAYMELSSLRSEDTAVYHCVSRRPWFAYWGQGTLVTVSS
VL: DIVMTQTPLSLSVTPGQPASISCRSSQSIVHSNGNTYLEWYLQKPGQSPQLLIYKVTNRFSGVPDRFSGSGSGTDFTLKISRVEAEDVGVYYCFQGSHVPYTFGQGTKLEIKR
notes: Humanized, human IgG4/kappa; also called huBSG11F2B7G5E8-V4
On to B2, for which the “Inhibition on IL4 induced STAT6 phosphorylation (IC50, nM)” value in assay [1] was found to be 0.3 nM. Further, the “Inhibition on IL13 induced STAT6 phosphorylation (IC50, nM)” value in assay [1] worked out at 0.81 nM. The EC50 in [2] turned out to be 0.27 nM; in assay [4], 7.12 nM; in assay [7], 7.12 nM; in assay [10], 0.275 nM; in assay [12] it was 0.73 nM; in assay [13], 0.41 nM. In addition, the EC50 in assay [16] turned out to be 0.726 nM; in assay [17] it was 0.414 nM. Further, the IC50 came out at 1.24 nM in assay [3]; 0.825 nM in assay [6]; 0.82 nM in assay [9]; 0.51 nM in assay [11]; 0.513 nM in assay [14]; 1.24 nM in [15]. Besides, the Kd in [5] was 3.21 nM; in [8] it was 5.5 nM. Moreover, the koff in [5] worked out at 0.00185 s⁻¹. Besides, the kon in assay [5] was determined as 577000 M⁻¹ s⁻¹.

The record behind these values is US20230105029A1 (CHIA TAI TIANQING PHARMACEUTICAL GROUP, published 2023).
